# Test results from US11547739B2, “Peptides and methods related to ICOS signaling” (priority 2015, dated 2023).
# T1: TBK1 (Homo sapiens, UniProt Q9UHD2)
# T1 sequence (Q9UHD2 1-729): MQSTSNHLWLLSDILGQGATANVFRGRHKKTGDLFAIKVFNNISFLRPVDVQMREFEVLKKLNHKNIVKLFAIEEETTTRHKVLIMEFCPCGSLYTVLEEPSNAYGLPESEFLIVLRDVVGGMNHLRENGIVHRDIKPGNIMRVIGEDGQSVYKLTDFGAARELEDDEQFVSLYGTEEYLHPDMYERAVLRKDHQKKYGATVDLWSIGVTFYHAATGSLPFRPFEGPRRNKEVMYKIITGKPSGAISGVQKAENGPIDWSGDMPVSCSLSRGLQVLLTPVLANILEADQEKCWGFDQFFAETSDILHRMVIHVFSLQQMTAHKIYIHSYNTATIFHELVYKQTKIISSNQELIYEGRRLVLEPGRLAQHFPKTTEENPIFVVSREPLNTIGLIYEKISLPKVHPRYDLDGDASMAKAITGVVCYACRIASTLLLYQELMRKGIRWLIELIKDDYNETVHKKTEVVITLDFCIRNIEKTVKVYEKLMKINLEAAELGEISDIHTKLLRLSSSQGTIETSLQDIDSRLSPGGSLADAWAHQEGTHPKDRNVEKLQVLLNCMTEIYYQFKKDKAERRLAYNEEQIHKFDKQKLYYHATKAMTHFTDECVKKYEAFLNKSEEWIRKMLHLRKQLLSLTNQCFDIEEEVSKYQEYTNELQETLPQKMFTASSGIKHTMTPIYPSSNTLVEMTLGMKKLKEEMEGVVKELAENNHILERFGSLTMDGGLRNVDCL
# Legend:
# Tbk1 transcript = assay: In vivo knockdown efficiency by quantitative PCR in sorted transduced cells; set-up: species or system mouse; settings: sorted shTbk1+CD4+ T cells
# Protocol: Isolation of mRNA, cDNA synthesis and real-time PCR. Total RNA was extracted from sorted CD4^+ Ametrine- and CD4^+ Ametrine^+ cells using the RNeasy kit (Qiagen). RNA was used to synthesize cDNA by the SuperScript III FirstStrand cDNA synthesis kit (Life Technologies). […]; Relative gene expression levels were determined in triplicates, calculated using the 2-° Act method and normalized to the level of ACTB.
# TBK1 [1] = molecular target: T1, TBK1; assay: Anti-FLAG immunoprecipitation of WT or mutated TRAF2/TRAF3 in HEK293T cells; type: binding; set-up: endogenous in cells; settings: FLAG-tagged TRAF in HEK293T cells
# Protocol: (§1) Immunoprecipitation and immunoblotting. The human leukemic Jurkat T cell line, JTAg, was previously described (Li, J et al. J Immunol 2013, 191(1): 200-207; Rolf J et al., J Immunol 2010, 185(7): 4042-4052) and the HEK 293T cell line was obtained from ATCC. These cell lines have not been recently STR profiled but tested negative for mycoplasma contamination. JTAg cells in logarithmic growth phase were transfected with plasmid DNAs by electroporation and incubated for 24 hours. Transfection of HEK293T cells was carried out via liposomes-mediated transfection with plasmid DNAs. For experiments using primary mouse T cells, purified CD4+ T cells were activated in vitro with anti-mouse CD3 (clone 145-2C11) and CD28 (clone 37.51) for 48 hours prior to resting in the presence of IL-2 for another 48 hours. Transfected JTAg cells and preactivated mouse CD4^+ T cells were stimulated with anti-CD3 and anti-ICOS (clone C398.4A) monoclonal antibodies (mAbs) in the presence of a cross-linking antibody (Ab) for 2 minutes. […] The intensity of bands was measured using the ImageJ software (NIH). To determine the ratio of TBK1 to p85a, the band intensity on IP blots and WCL blots were measured for TBK1 and p85a, respectively, and the ratio was expressed as (IP TBK1)/(WCL TBK1): (IP p85a)/(WCL p85a).
# TBK1 [2] = molecular target: T1, TBK1; assay: ICOS immunoprecipitation and immunoblotting in transfected Jurkat (JTAg) T cells; type: binding; set-up: endogenous in cells; host or cells: Jurkat JTAg T cells transfected with ICOS plasmids; settings: Jurkat (JTAg) cells stimulated with anti-CD3 plus -ICOS mAbs
# Protocol: as §1
# [3] = system: GC B cells and plasma cells; type: in vivo, mouse; settings: KLH-gp61 in alum, 10 d
# Tfh cells = settings: mouse, in vivo
molecule,measurement,setting,value
shTbk1 (guide AAGACATAAAGTGCTTATTATG; expressed or natural sequence),Tbk1 transcript reduced,Tbk1 transcript,~80%
"TRAF3 (protein, UniProt Q13114 1-568, looked up) TNF receptor-associated …: MESSKKMDSPGALQTNPPLKLHTDRSAGTPVFVPEQGGYKEKFVKTVEDKYKCEKCHLVLCSPKQTECGHRFCESCMAALLSSSSPKCTACQESIVKDKVFKDNCCKREILALQIYCRNESRGCAEQLMLGHLLVHLKNDCHFEELPCVRPDCKEKVLRKDLRDHVEKACKYREATCSHCKSQVPMIALQKHEDTDCPCVVVSCPHKCSVQTLLRSELSAHLSECVNAPSTCSFKRYGCVFQGTNQQIKAHEASSAVQHVNLLKEWSNSLEKKVSLLQNESVEKNKSIQSLHNQICSFEIEIERQKEMLRNNESKILHLQRVIDSQAEKLKELDKEIRPFRQNWEEADSMKSSVESLQNRVTELESVDKSAGQVARNTGLLESQLSRHDQMLSVHDIRLADMDLRFQVLETASYNGVLIWKIRDYKRRKQEAVMGKTLSLYSQPFYTGYFGYKMCARVYLNGDGMGKGTHLSLFFVIMRGEYDALLPWPFKQKVTLMLMDQGSSRRHLGDAFKPDPNSSSFKKPTGEMNIASGCPVFVAQTVLENGTYIKDDTIFIKVIVDTSDLPDP",interaction with TBK1,TBK1 [1],interacted strongly
WT ICOS (protein) EINGSANYEMFIFHNGGVQILCKYPDIVQQFKMQLLKGGQILCDLTKTKGSGNTVSIKSLKFCHSQLSNNSVSFFLYNLDHSHANYYFCNLSIFDPPPFKVTLTGGYLHIYESQLCCQLKFWLPIGCAAFVVVCILGCILICWLTKKKYSSSVHDPNGEYMFMRAVNTAKKSRLTDVTL,interaction with endogenous TBK1 in ICOS IPs,TBK1 [2],interacted strongly
same,B cell differentiation (Fas+GL7+ GC B cells and class-switched IgD-CD138+ plasma cells),[3],supported the differentiation
same,CXCR5+SLAMlo Tfh cell population,Tfh cells,differentiated
same,differentiation of CXCR5+PD1hi GC Tfh cells,Tfh cells,restored
same,nascent CXCR5+Bcl6+ Tfh cells,Tfh cells,able to differentiate
"WT TRAF2 (protein, left off: small tags and cut ends) MAAASVTPPGSLELLQPGFSKTLLGTKLEAKYLCSACRNVLRRPFQAQCGHRYCSFCLASILSSGPQNCAACVHEGIYEEGISILESSSAFPDNAARREVESLPAVCPSDGCTWKGTLKEYESCHEGRCPLMLTECPACKGLVRLGEKERHLEHECPERSLSCRHCRAPCCGADVKAHHEVCPKFPLTCDGCGKKKIPREKFQDHVKTCGKCRVPCRFHAIGCLETVEGEKQQEHEVQWLREHLAMLLSSVLEAKPLLGDQSHAGSELLQGCESLEKKTATFENIVCVLNREVERVAMTAEACSRQHRLDQDKIEAPSSKVQQLERSIGLKDLAMADLEQKVSEMEASTYDGVFIWKISDFARKRQEAVAGRIPAIFSPAFYTRRYGYKMCLRIYLNGDGTGRGTHLSLFFVVMKGPNDALLRWPFNQKVTLMLLDQNNREHVIDAFRPDVTSSSFQRPVNDMNIASGCPLFCPVSKMEAKDSYVRDDAIFIKAIVDLTGL",interaction with TBK1,TBK1 [1],interacted strongly
